Positions count from the first letter of the chain named. Numbers in names are those of the source.
B1: Q99P (protein)
chain: MQLRNPELHLGCALALRFLALVSWDIPGARALDNGLARTPTMGWLHWERFMCNLDCQEEPDSCISEKLFMEMAELMVSEGWKDAGYEYLCIDDCWMAPPRDSEGRLQADPQRFPHGIRQLANYVHSKGLKLGIYADVGNKTCAGFPGSFGYYDIDAQTFADWGVDLLKFDGCYCDSLENLADGYKHMSLALNRTGRSIVYSCEWPLYMWPFQKPNYTEIRQYCNHWRNFADIDDSWKSIKSILDWTSFNQERIVDVAGPGGWNDPDMLVIGNFGLSWNQQVTQMALWAIMAAPLFMSNDLRHISPQAKALLQDKDVIAINQDPLGKQGYQLRQGDNFEVWERPLSGLAWAVAMINRQEIGGPRSYTIAVASLGKGVACNPACFITQLLPVKRKLGFYEWTSRLRSHINPTGTVLLQLENTMQMSLKDLL
B2: G104A (protein)
chain: B1 chain with P99Q, G104A
B3: D101E (protein)
chain: B1 chain with P99Q, D101E
B4: D101A (protein)
chain: B1 chain with P99Q, D101A
B5: S102A (protein)
chain: B1 chain with P99Q, S102A
B6: S102T (protein)
chain: B1 chain with P99Q, S102T
B7: Q99R (protein)
chain: B1 chain with P99R
B8: D101G (protein)
chain: B1 chain with P99Q, D101G
B9: R105G (protein)
chain: B1 chain with P99Q, R105G
B10: R105I (protein)
chain: B1 chain with P99Q, R105I
B11: R105K (protein)
chain: B1 chain with P99Q, R105K
B12: S102P (protein)
chain: B1 chain with P99Q, S102P
B13: D101H (protein)
chain: B1 chain with P99Q, D101H
B14: G104S (protein)
chain: B1 chain with P99Q, G104S
B15: L106H (protein)
chain: B1 chain with P99Q, L106H
B16: D101V (protein)
chain: B1 chain with P99Q, D101V
B17: R105T (protein)
chain: B1 chain with P99Q, R105T
B18: G104D (protein)
chain: B1 chain with P99Q, G104D

Tested on: mutant form of α-Gal A expressed in HEK-293 cells
Assay: HEK assay (GLP HEK / Migalastat Amenability Assay): α-Gal A activity in lysates of transiently transfected HEK-293 cells incubated with or without 10 μM migalastat
Type: cell-based, human
Settings: for Absolute increase (% WT): 10 μM migalastat versus baseline; for Relative increase: 10 μM migalastat α-Gal A activity relative to baseline; for 10 μM migalastat α-Gal A activity (% WT): 5 days; for 10 μM migalastat α-Gal A activity (% WT) / Baseline α-Gal A activity (% WT): percentage of baseline wild-type α-Gal A activity; for 10 μM migalastat α-Gal A activity (% WT) / Baseline α-Gal A activity (% WT) / Baseline α-Gal A activity / 10 μM migalastat α-Gal A activity: mean ± SEM; for Baseline α-Gal A activity (% WT): absence of migalastat; for Baseline α-Gal A activity / 10 μM migalastat α-Gal A activity: lysates of HEK-293 cells transfected with the mutant form; for Baseline α-Gal A activity: incubated 5 days in the absence of migalastat; for 10 μM migalastat α-Gal A activity: incubated 5 days with 10 μM migalastat
Method: Such mutations or variants are also referred to herein as “HEK assay amenable” mutations or variants.
The α-Gal A activity is expressed as the nmoles of free 4-MU released per milligram of protein per hour (nmol/mg/hr).
In Table 7, values for the mean±standard error of the mean (SEM) were calculated. nmol/mg/hr indicates “nmoles of free 4-MU released per mg of protein per hour”. WT indicates “wild-type”. NC indicates “not calculable”. N/A indicates “not applicable”.

Molecule | Absolute increase (% WT) | Relative increase | 10 μM migalastat α-Gal A activity (% WT) | Baseline α-Gal A activity (% WT) | Baseline α-Gal A activity | 10 μM migalastat α-Gal A activity
B1 | 19.1 % WT | 3.3 | 28 ± 2.4 % WT | 8.8 ± 1.2 % WT | 3034 ± 340 nmol/mg/h | 9885 ± 794 nmol/mg/h
B2 | 40.4 % WT | 3.7 | 55.2 ± 3 % WT | 14.8 ± 1 % WT | 5271 ± 397 nmol/mg/h | 19670 ± 1202 nmol/mg/h
B3 | 10.1 % WT | 1.4 | 34 ± 2.8 % WT | 23.9 ± 1.6 % WT | 10465 ± 624 nmol/mg/h | 14682 ± 993 nmol/mg/h
B4 | 10.2 % WT | 1.5 | 34.1 ± 3.3 % WT | 23.9 ± 3 % WT | 10144 ± 1069 nmol/mg/h | 14707 ± 1289 nmol/mg/h
B5 | 27.3 % WT | 1.6 | 69.9 ± 5.1 % WT | 42.6 ± 3.5 % WT | 17330 ± 2084 nmol/mg/h | 26790 ± 1958 nmol/mg/h
B6 | 20.5 % WT | 1.3 | 76.9 ± 6.2 % WT | 56.4 ± 5.2 % WT | 22123 ± 2319 nmol/mg/h | 29662 ± 2559 nmol/mg/h
B7 | 21.4 % WT | 1.2 | 114.8 ± 8 % WT | 93.4 ± 6.3 % WT | 32963 ± 1757 nmol/mg/h | 41024 ± 3001 nmol/mg/h
B8 | 12.7 % WT | 1.3 | 54.5 ± 3.8 % WT | 41.8 ± 3.1 % WT | 18091 ± 1103 nmol/mg/h | 23672 ± 1428 nmol/mg/h
B9 | 15.3 % WT | 1.4 | 53.3 ± 3.5 % WT | 38 ± 2.1 % WT | 16513 ± 681 nmol/mg/h | 22993 ± 1042 nmol/mg/h
B10 | 8.2 % WT | 1.3 | 41.6 ± 3.1 % WT | 33.4 ± 2.2 % WT | 9696 ± 798 nmol/mg/h | 12128 ± 1157 nmol/mg/h
B11 | 20.5 % WT | 1.2 | 96.7 ± 5.2 % WT | 76.2 ± 2.9 % WT | 25495 ± 1793 nmol/mg/h | 31647 ± 2251 nmol/mg/h
B12 | 22.3 % WT | 1.3 | 91.7 ± 5 % WT | 69.4 ± 3.4 % WT | 27252 ± 1778 nmol/mg/h | 35885 ± 2754 nmol/mg/h
B13 | 7.3 % WT | 1.4 | 23.8 ± 1.3 % WT | 16.5 ± 1.2 % WT | 7311 ± 556 nmol/mg/h | 10493 ± 561 nmol/mg/h
B14 | 52.0 % WT | 3.9 | 69.8 ± 5.8 % WT | 17.9 ± 1.8 % WT | 5720 ± 464 nmol/mg/h | 22242 ± 1000 nmol/mg/h
B15 | 7.3 % WT | 3.5 | 10.2 ± 1.1 % WT | 3 ± 0.2 % WT | 856 ± 58 nmol/mg/h | 3009 ± 399 nmol/mg/h
B16 | 10.2 % WT | 2.2 | 18 ± 2.6 % WT | 7.8 ± 0.5 % WT | 3368 ± 179 nmol/mg/h | 7489 ± 936 nmol/mg/h
B17 | 15.6 % WT | 1.4 | 59.6 ± 3.9 % WT | 44 ± 2.2 % WT | 12553 ± 603 nmol/mg/h | 17062 ± 1134 nmol/mg/h
B18 | 30.5 % WT | 1.8 | 69.8 ± 4.7 % WT | 39.3 ± 2.6 % WT | 14123 ± 1096 nmol/mg/h | 24797 ± 1771 nmol/mg/h

Reference: patent publication US11833164B2, “Methods of treating Fabry disease in patients having a mutation in the GLA gene” (Amicus Therapeutics, Inc., priority 2019, dated 2023)
